# Assay results from patent publication US9464326B2, “Total and phosphorylated IL-1 receptor-associated kinase-1 and IL-1 receptor-associated kinase-4 as a biomarker for cancer progression and chemotherapy resistance” (University of Maryland, Baltimore, priority 2012, dated 2016).
# B1: Flagellin: S. typhimurium flagellin, TLR5 ligand (Invivogen) (protein, UniProt P06179 2-495, looked up)
# Flagellin: AQVINTNSLSLLTQNNLNKSQSALGTAIERLSSGLRINSAKDDAAGQAIANRFTANIKGLTQASRNANDGISIAQTTEGALNEINNNLQRVRELAVQSANSTNSQSDLDSIQAEITQRLNEIDRVSGQTQFNGVKVLAQDNTLTIQVGANDGETIDIDLKQINSQTLGLDTLNVQQKYKVSDTAATVTGYADTTIALDNSTFKASATGLGGTDQKIDGDLKFDDTTGKYYAKVTVTGGTGKDGYYEVSVDKTNGEVTLAGGATSPLTGGLPATATEDVKNVQVANADLTEAKAALTAAGVTGTASVVKMSYTDNNGKTIDGGLAVKVGDDYYSATQNKDGSISINTTKYTADDGTSKTALNKLGGADGKTEVVSIGGKTYAASKAEGHNFKAQPDLAEAAATTTENPLQKIDAALAQVDTLRSDLGAVQNRFNSAITNLGNTVNNLTSARSRIEDSDYATEVSNMSRAQILQQAGTSVLAQANQVPQNVLSLLR
# How the values were obtained:
# Format in all cases: cell-based, human
# G361 melanoma cells = assay: Western blot of IRAK phosphorylation in G361; details: 48 hours
# Experimental: (§1) FIG. 22. Effects of TLR stimulation and cytokines on IRAK phosphorylation in melanoma cells. (A) A375 cells were cultured in the presence of anti-IL-18, anti-CXCL-1, (R&D Systems), anti-IL-1 (BioLegend), or mouse IgG (Sigma-Aldrich) all at 10 μg/ml. Forty-eight hours later the levels of the indicated proteins were determined by western blot. (B) A375 cells, which express p-IRAK-1 and p-IRAK-4, and G361 melanoma cells, which express very low levels of p-IRAK-1 (and express TLR5) were cultured in the presence of TLR1-TLR2 agonist (Pam3CysK4; 2.5 μg/ml) or TLR5 (flagellin; 100 ng/ml; InVivogen). Forty-eight hours later total protein was collected and the levels of the indicated proteins were examined by western blot.
# (§2) Total cell extracts were prepared from melanoma cells. […] Melanoma tissue arrays were purchased from US Biomax, Inc (Rockville, Md.). For immunohistochemical staining samples were stained with mouse monoclonal anti-human phosphor-IRAK.-4 antibody (Abnova; dilution, 3.5 μg/ml) or normal mouse serum. Tissue histology sections (5-μm-thick) were deparaffinized, hydrated, heated in boiling 10 mmol/L sodium citrate (pH 6.0), for antigen retrieval, for 30 min and washed in Tris buffer. Peroxide blocking was done with 3% […] in methanol at room temperature for 15 min, followed by 10% fetal bovine serum in TBS-t for 30 min at room temperature. Primary antibody incubation was done overnight at 4° C. Secondary antibody incubation with horse anti-mouse (1:200; Vector Laboratories, Burlingame, Calif.) was done for 1 hr, followed by application of diaminobenzidine chromogen for 5 min. The slides were then counterstained with hematoxylin and topped with a coverslip. IHC specimens were analyzed using “quick score” system in which the intensity of the immunohistochemical reaction was scored by multiplying the intensity 1 (weak), 2 (moderate), and 3 (strong) and the proportion of cells staining positively 0 (<10%), 1 (10-25%), 2 (26-50%), 3 (51-75%) or 4 (>75%).
# Loucy = assay: Proliferation (3H-thymidine) of Loucy; details: 3H-thymidine uptake, 72 h
# Source text: (§3) CCRF-CEM, CEM/C1, CEM/C2, CEM-C7, Jurkat, Loucy, Molt-4, HSB-2, SUP-T1, Hut 78, HH, Hut 102, MO, and H9 T-leukemia and T-lymphoma cell lines were purchased from the American Type Culture Collection (Manassas, Va., USA). All of the cell lines were initially expanded and cryopreserved within one month of receipt. Cells were typically used for 6 months at which time a fresh vial of cryopreserved cells was used. Total T cells from healthy donors were isolated via negative selection followed by positive selection using a CD3+ selection kit (Invitrogen, Carlsbad, Calif.). T cells were isolated from patients with T-ALL bone marrow or peripheral blood samples containing more than 70% leukemia cells using a CD2+ isolation kit (STEMCELL Technologies, Vancouver, Canada). All tissues were collected under institutional IRB-approved protocols and all participants gave written informed assent/consent. For in vitro experiments, T-ALL cells were cultured in AIM-V medium supplemented with 20% human AB serum in the presence of recombinant human stem cell factor (50 ng/mL; Amgen, Thousand Oaks, Calif.), insulin (20 nM; Sigma-Aldrich, St Louis, Mo., USA) and IL-7 (50 ng/mL; R&D Systems, Minneapolis, Minn., USA). In other experiments, protein lysate was collected using the Full Moon Biosystems (Sunnyvale, Calif., USA) buffer prior to protein examination by western blot or protein array.
# (§4) Cells were cultured in a 96-well plate (Corning Costar, Corning, N.Y., USA) with various concentrations of TLR ligands 1-9, starting at 10 μg/ml, in a final volume of 200 ul. TLR ligands were diluted 2-fold. Cell lines (25-40×10^3/well) were cultured for 54 hours, whereas fresh patient-derived T-ALL cells (200×10^3/well) were cultured for 30 hours prior to adding [^3H]-thymidine for 18 hours. After this time point, cells were harvested with a Packard Filter-Mate-96 cell harvester (Perkin Elmer, Waltham, Mass., USA) and counted on Packard Top Count-NXT (Perkin Elmer, Waltham, Mass., USA). Results were expressed as average counts per minute (cpm). In some experiments CCRF-CEM cells were pre-treated with TLR1-TLR2 ligand (Pam3CysK4; 2.5 ug/ml) for 48 hrs, washed, and then cultured in the presence of varying concentrations of FBS. Forty-eight hours later, proliferation (±SD) was determined by ^3H-thymidine incorporation. Alternatively, apoptosis was measured by flow cytometry after staining cells with Annexin-V (BD Pharmingen, San Diego, Calif., USA) and propidium iodide (Sigma). Cell number was counted under microscopy by staining cells with trypan blue. […]
# Hut-78 = assay: Proliferation (3H-thymidine) of Hut-78; details: 3H-thymidine uptake, 72 h
# Source text: as §3, with “In other experiments, protein lysate was collected using the Full Moon Biosystems (Sunnyvale, Calif., USA) buffer prior to protein examination by western blot or protein array.” left out
# as §4, with “TLR ligands were diluted 2-fold. Cell lines (25-40×10^3/well) were cultured for 54 hours, whereas fresh patient-derived T-ALL cells (200×10^3/well) were cultured for 30 hours prior to adding [^3H]-thymidine for 18 hours.” left out, “In some experiments CCRF-CEM cells were pre-treated with TLR1-TLR2 ligand (Pam3CysK4; 2.5 ug/ml) for 48 hrs, washed, and then cultured in the presence of varying concentrations of FBS.” left out
# MO = assay: Proliferation (3H-thymidine) of MO; details: 3H-thymidine uptake, 72 h
# Source text: as §3, with “In other experiments, protein lysate was collected using the Full Moon Biosystems (Sunnyvale, Calif., USA) buffer prior to protein examination by western blot or protein array.” left out
# as §4, with “TLR ligands were diluted 2-fold. Cell lines (25-40×10^3/well) were cultured for 54 hours, whereas fresh patient-derived T-ALL cells (200×10^3/well) were cultured for 30 hours prior to adding [^3H]-thymidine for 18 hours.” left out, “In some experiments CCRF-CEM cells were pre-treated with TLR1-TLR2 ligand (Pam3CysK4; 2.5 ug/ml) for 48 hrs, washed, and then cultured in the presence of varying concentrations of FBS.” left out
# Hut 102 = assay: Proliferation (3H-thymidine) of Hut 102; details: 3H-thymidine uptake, 72 h
# Source text: as §3, with “In other experiments, protein lysate was collected using the Full Moon Biosystems (Sunnyvale, Calif., USA) buffer prior to protein examination by western blot or protein array.” left out
# as §4, with “TLR ligands were diluted 2-fold. Cell lines (25-40×10^3/well) were cultured for 54 hours, whereas fresh patient-derived T-ALL cells (200×10^3/well) were cultured for 30 hours prior to adding [^3H]-thymidine for 18 hours.” left out, “In some experiments CCRF-CEM cells were pre-treated with TLR1-TLR2 ligand (Pam3CysK4; 2.5 ug/ml) for 48 hrs, washed, and then cultured in the presence of varying concentrations of FBS.” left out
# CEM-C2 = assay: Proliferation (3H-thymidine) of CEM-C2; details: 3H-thymidine uptake, 72 h
# Source text: as §3, §4
# CEM-C7 = assay: Proliferation (3H-thymidine) of CEM-C7
# Source text: as §3
# (§5) Cells were cultured in a 96-well plate (Corning Costar, Corning, N.Y., USA) with various concentrations of TLR ligands 1-9, starting at 10 μg/ml, in a final volume of 200 ul. TLR ligands were diluted 2-fold. Cell lines (25-40×10^3/well) were cultured for 54 hours, whereas fresh patient-derived T-ALL cells (200×10^3/well) were cultured for 30 hours prior to adding [^3H]-thymidine for 18 hours. After this time point, cells were harvested with a Packard Filter-Mate-96 cell harvester (Perkin Elmer, Waltham, Mass., USA) and counted on Packard Top Count-NXT (Perkin Elmer, Waltham, Mass., USA). Results were expressed as average counts per minute (cpm). In some experiments CCRF-CEM cells were pre-treated with TLR1-TLR2 ligand (Pam3CysK4; 2.5 ug/ml) for 48 hrs, washed, and then cultured in the presence of varying concentrations of FBS. Forty-eight hours later, proliferation (±SD) was determined by ^3H-thymidine incorporation. Alternatively, apoptosis was measured by flow cytometry after staining cells with Annexin-V (BD Pharmingen, San Diego, Calif., USA) and propidium iodide (Sigma). Cell number was counted under microscopy by staining cells with trypan blue.
# (§6) The following TLR ligands were purchased from Invivogen (San Diego, Calif., USA): tripalmitoyl-S-(bis(palmitoyloxy)propyl)-Cys-Ser-(Lys)3-Lys (TLR1-2); Poly I:C (TLR3); ultrapure S. Minnesota Lipopolysaccharide (TLR4); S. typhimurium flagellin (TLR5); FSL-1 (TLR2/6); Imiquimod (TLR7); ssRNA40/Lyovec (TLR8); CpG-ODN 2006 (TLR9).
# HSB-2 = assay: Proliferation (3H-thymidine) of HSB-2
# Source text: as §3, §5, §6
# Molt-4 = assay: Proliferation (3H-thymidine) of Molt-4; details: 3H-thymidine uptake, 72 h
# Source text: as §3, with “In other experiments, protein lysate was collected using the Full Moon Biosystems (Sunnyvale, Calif., USA) buffer prior to protein examination by western blot or protein array.” left out
# as §4, with “TLR ligands were diluted 2-fold. Cell lines (25-40×10^3/well) were cultured for 54 hours, whereas fresh patient-derived T-ALL cells (200×10^3/well) were cultured for 30 hours prior to adding [^3H]-thymidine for 18 hours.” left out, “In some experiments CCRF-CEM cells were pre-treated with TLR1-TLR2 ligand (Pam3CysK4; 2.5 ug/ml) for 48 hrs, washed, and then cultured in the presence of varying concentrations of FBS.” left out
# SupT1 = assay: Proliferation (3H-thymidine) of SupT1; details: SupT1; 3H-thymidine uptake, 72 h
# Source text: as §3, §5, §6
# CEM-C1 = assay: Proliferation (3H-thymidine) of CEM-C1; details: 3H-thymidine uptake, 72 h
# Source text: as §3, §4
# A375 cells = assay: Western blot of IRAK phosphorylation in A375; details: 48 hours
# Experimental: as §1, §2
# Jurkat = assay: Proliferation (3H-thymidine) of Jurkat; details: 3H-thymidine uptake, 72 h
# Source text: as §3, §4
# [1] = test system: Primary T-cells Activated; assay: Proliferation (3H-thymidine) of activated primary T-cells; details: Primary T-cells, Activated
# Source text: as §3, §5, §6
# CCRF-CEM = assay: Proliferation (3H-thymidine) of CCRF-CEM; details: 3H-thymidine uptake, 72 h
# Source text: as §3, §5, §6
# HH = assay: Proliferation (3H-thymidine) of HH; details: 3H-thymidine uptake, 72 h
# Source text: as §3, with “In other experiments, protein lysate was collected using the Full Moon Biosystems (Sunnyvale, Calif., USA) buffer prior to protein examination by western blot or protein array.” left out
# as §4, with “TLR ligands were diluted 2-fold. Cell lines (25-40×10^3/well) were cultured for 54 hours, whereas fresh patient-derived T-ALL cells (200×10^3/well) were cultured for 30 hours prior to adding [^3H]-thymidine for 18 hours.” left out, “In some experiments CCRF-CEM cells were pre-treated with TLR1-TLR2 ligand (Pam3CysK4; 2.5 ug/ml) for 48 hrs, washed, and then cultured in the presence of varying concentrations of FBS.” left out
# Primary T-cells Non-Act = assay: Proliferation (3H-thymidine) of non-activated primary T-cells; details: 3H-thymidine uptake, 72 h
# Source text: as §3, with “In other experiments, protein lysate was collected using the Full Moon Biosystems (Sunnyvale, Calif., USA) buffer prior to protein examination by western blot or protein array.” left out
# as §4, with “TLR ligands were diluted 2-fold. Cell lines (25-40×10^3/well) were cultured for 54 hours, whereas fresh patient-derived T-ALL cells (200×10^3/well) were cultured for 30 hours prior to adding [^3H]-thymidine for 18 hours.” left out, “In some experiments CCRF-CEM cells were pre-treated with TLR1-TLR2 ligand (Pam3CysK4; 2.5 ug/ml) for 48 hrs, washed, and then cultured in the presence of varying concentrations of FBS.” left out
# H9 = assay: Proliferation (3H-thymidine) of H9; details: H9
# Source text: as §3, §5, §6
# [2] = Pam3CysK4 2.5 μg/ml or flagellin 100 ng/ml, FIG. 22B
molecule,measurement,setting,value
B1,p-IRAK-1 or p-IRAK-4 expression levels,G361 melanoma cells; [2],"neither TLR-1-TLR2 agonist (Pam3CysK4), nor TLR5 (Flagellin) stimulation increased or induced"
same,total and p-IRAK-4 levels,G361 melanoma cells; flagellin 100 ng/ml,reduced
same,Proliferative effects of TLR ligands,Loucy,∘
same,Proliferative effects of TLR ligands,Hut-78,∘
same,Proliferative effects of TLR ligands,MO,∘
same,Proliferative effects of TLR ligands,Hut 102,∘
same,Proliferative effects of TLR ligands,CEM-C2,∘
same,Proliferative effects of TLR ligands,"CEM-C7; 3H-thymidine uptake, 72 h",− (reduced proliferation)
same,TLR ligand concentration in parentheses below the symbol,CEM-C7; no unit in table (μg/ml),(2.5)
same,Proliferative effects of TLR ligands,"HSB-2; 3H-thymidine uptake, 72 h",− (reduced proliferation)
same,TLR ligand concentration in parentheses below the symbol,HSB-2; no unit in table (μg/ml),(10)
same,Proliferative effects of TLR ligands,Molt-4,∘
same,Proliferative effects of TLR ligands,SupT1,∘
same,Proliferative effects of TLR ligands,CEM-C1,∘
same,p-IRAK-1 or p-IRAK-4 expression levels,A375 cells; [2],"neither TLR-1-TLR2 agonist (Pam3CysK4), nor TLR5 (Flagellin) stimulation increased or induced"
same,total and p-IRAK-4 levels,A375 cells; flagellin 100 ng/ml,reduced
same,Proliferative effects of TLR ligands,Jurkat,∘
same,Proliferative effects of TLR ligands,"[1]; 3H-thymidine uptake, 72 h",+ (enhanced proliferation by 25% or greater)
same,TLR ligand concentration in parentheses below the symbol,[1]; no unit in table (μg/ml),(10)
same,Proliferative effects of TLR ligands,CCRF-CEM,∘
same,Proliferative effects of TLR ligands,HH,∘
same,Proliferative effects of TLR ligands,Primary T-cells Non-Act,∘
same,Proliferative effects of TLR ligands,"H9; 3H-thymidine uptake, 72 h",− (reduced proliferation)
same,TLR ligand concentration in parentheses below the symbol,H9; no unit in table (μg/ml),(10)
